Results on nine molecules are retold here after patent US20110053865A1.

In assay [1] the target is cynomolgus IL-23 (cynomolgus). The assay is described as follows: cell-based or functional assay.
Assay [2] has as its target recombinant human IL-23 (p19/p40) (human) (UniProt Q9NPF7). As to the kind of experiment: cell-based or functional assay.
Assay [3] addresses cynomolgus IL-23 (cynomolgus). As to the kind of experiment: cell-based or functional assay. The source holds these as a separate data set.
For assay [4], the target named is recombinant human IL-23 (p19/p40) (human) (UniProt Q9NPF7). As to the kind of experiment: cell-based or functional assay. This is another data set of the same source.
recombinant human IL-23 (p19/p40) (human), sequence (Q9NPF7 20-189 limits assumed, chain 1 of 2): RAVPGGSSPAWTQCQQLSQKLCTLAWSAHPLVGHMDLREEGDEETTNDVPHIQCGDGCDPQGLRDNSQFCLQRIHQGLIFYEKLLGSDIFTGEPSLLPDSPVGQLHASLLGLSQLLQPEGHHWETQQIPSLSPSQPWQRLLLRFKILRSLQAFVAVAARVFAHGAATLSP
recombinant human IL-23 (p19/p40) (human), sequence (P29460 23-328 limits assumed, chain 2 of 2, further chain): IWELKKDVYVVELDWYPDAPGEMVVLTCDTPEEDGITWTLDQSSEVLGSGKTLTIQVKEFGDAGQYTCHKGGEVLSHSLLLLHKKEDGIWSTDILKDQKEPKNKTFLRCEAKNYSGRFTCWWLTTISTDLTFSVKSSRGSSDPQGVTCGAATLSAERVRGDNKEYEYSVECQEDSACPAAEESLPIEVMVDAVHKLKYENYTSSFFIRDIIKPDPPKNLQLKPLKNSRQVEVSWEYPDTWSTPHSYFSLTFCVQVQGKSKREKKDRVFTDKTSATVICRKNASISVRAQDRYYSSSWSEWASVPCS
Assay [5] has the same target. As to the kind of experiment: inhibition ELISA, hIL-23/hIL-23R-Fc. On the technique in general: In an ELISA, binding on a coated surface is turned into a signal by an enzyme label.
In assay [6] the target is native human IL-23 (supernatant of SAC-stimulated THP-1 cells) (human) (UniProt Q9NPF7). As to the kind of experiment: cell-based or functional assay.
native human IL-23 (supernatant of SAC-stimulated THP-1 cells) (human), sequence (Q9NPF7 20-189, chain 1 of 2): as the sequence (Q9NPF7 20-189 limits assumed, chain 1 of 2) above
native human IL-23 (supernatant of SAC-stimulated THP-1 cells) (human), sequence (P29460 23-328, chain 2 of 2, further chain): as the sequence (P29460 23-328 limits assumed, chain 2 of 2, further chain) above

Read-outs that look alike come from different tables or passages of the source.

B1: P23IL119A3V16-9GS-ALB8-9GS-81A12V4 (bispecific antibody, part only; not given: anti-albumin Nanobody, part only)
chain, part: EVQLLESGGGLVQPGGSLRLSCAASGRIFSLPASGNIFNLLTIAWYRQAPGKGRELVATINSGSRTYYADSVKGRFTISRDNSKKTLYLQMNSLRPEDTAVYYCQTSGSGSPNFWGQGTLVTVSSGGGGSGGGSGGGGSGGGSEVQLLESGGGLVQPGGSLRLSCAASGRTLSSYAMGWFRQAPGKGREFVSRISQGGTAIYYADSVKGRFTISRDNSKNTLYLQMNSLRPEDTAVYYCAKDPSPYYRGSAYLLSGSYDSWGQGTLVTVSS
For orientation: IC50 means the concentration that gives 50% inhibition. Consider B1, for which the results for the IC50, splenocyte assay, 3.8 pM cIL-23 in assay [1] and in assay [3] were 6.7 pM and 5.4 pM, respectively. Further, in assay [2], the IC50, BA/F3 proliferation assay, 76 pM hIL-23 amounted to 49 pM. Further, the values for the IC50, splenocyte assay, 19 pM hIL-23 in assay [2] and in assay [4] were 4.6 pM and 3.6 pM, respectively. The 50% inhibitory concentration (IC50) in assay [5] turned out to be 0.023 nM.

B2: P23IL-121A2-9GS-ALB1-9GS-119G7 (bispecific antibody, part only; not given: anti-albumin Nanobody, part only)
chain, part: EVQLVESGGGLVQAGGSLRLSCAASGSIFNFNYMGWFRQAPGKEREFVAAIRWSGSSTYYADSVKGRFTISRDDAKNTVALQMNSLKPEDTAIYYCALRKGIPYSTSDRVIKGVNDYDYWGQGTQVTVSSGGGGSGGGSGGGGSGGGSEVQLVESGGGLVQAGGSLTLSCAVSGLTFNNYAMGWFRQVPGKEREFVAAISRSGLRTFYSDSVKGRFTISRDSAKSTVYVQMNNLKPEDTAVYFCAADRRTYYSEGPSLTDTLRYDYWGQGTQVTVSS
On to B2, for which, in assay [2], the IC50, splenocyte assay, 19 pM hIL-23 was determined as 39 pM.

B3: P23IL20B11-9GS-ALB1-9GS-37D5 (bispecific antibody, part only; not given: anti-albumin Nanobody, part only)
chain, part: EVQLVESGGGLVQAGGSLRLSCAVSGDTFSVYGMGWFRQAPGMEREFVAGISWNAGITAYTDTLKGRFTISRDRAKNTMYLQMNSLQPEDTAVYYCAADVTRHYIATRSKVDASMYDYWGQGTQVTVSSGGGGSGGGSGGGGSGGGSEVQLVESGGGLVQPGGSLRLSCAASGFTLDYLAIGWFRQAPGKEREGVSCVSSSGQYTYYADSVKGRFTISRDNAESTVYLQMNSLKPEDTAVYYCATDPECYRVRGYYNGEYDYWGQGTQVTVSS
The molecule B3 yielded an IC50, splenocyte assay, 3.8 pM cIL-23 in assay [1] of 8.59 pM. Also, the IC50, splenocyte assay, 19 pM hIL-23 in assay [2] was 4.47 pM.

B4: P23IL37D5-9GS-ALB1-9GS-20B11 (bispecific antibody, part only; not given: anti-albumin Nanobody, part only)
chain, part: EVQLVESGGGLVQPGGSLRLSCAASGFTLDYLAIGWFRQAPGKEREGVSCVSSSGQYTYYADSVKGRFTISRDNAESTVYLQMNSLKPEDTAVYYCATDPECYRVRGYYNGEYDYWGQGTQVTVSSGGGGSGGGSGGGGSGGGSEVQLVESGGGLVQAGGSLRLSCAVSGDTFSVYGMGWFRQAPGMEREFVAGISWNAGITAYTDTLKGRFTISRDRAKNTMYLQMNSLQPEDTAVYYCAADVTRHYIATRSKVDASMYDYWGQGTQVTVSS
In assay [6], B4 showed an IC50, splenocyte assay, 19 pM native hIL-23 (Expt 3) of 12 pM. For the same molecule, the IC50, BAF3 proliferation assay, 76 pM hIL-23 in assay [2] came to 19.5 pM.

B5: P23IL37D5-15GS-ALB1-15GS-20B11 (bispecific antibody, part only; not given: anti-albumin Nanobody and linkers, not shown: small tags and cut ends)
chain, part: EVQLVESGGGLVQPGGSLRLSCAASGFTLDYLAIGWFRQAPGKEREGVSCVSSSGQYTYYADSVKGRFTISRDNAESTVYLQMNSLKPEDTAVYYCATDPECYRVRGYYNGEYDYWGQGTQVTVSSEVQLVESGGGLVQAGGSLRLSCAVSGDTFSVYGMGWFRQAPGMEREFVAGISWNAGITAYTDTLKGRFTISRDRAKNTMYLQMNSLQPEDTAVYYCAADVTRHYIATRSKVDASMYDYWGQGTQVTVSS
In the case of B5, the IC50, splenocyte assay, 3.8 pM cIL-23 in assay [1] was 5.75 pM. Besides, in assay [2], the IC50, splenocyte assay, 19 pM hIL-23 is 5.77 pM.

B6: P23IL119A3-9GS-ALB1-9GS-81G2 (bispecific antibody, part only; not given: anti-albumin Nanobody, part only)
chain, part: EVQLVESGGGLVQAGGSLRLSCAASGRIFSLPASGNIFNLLTIAWHRQAPGMQRELVATINSGSRTNYADSVKGRFTISRDNAQKTVYLQMNNLKPEDTAVYYCQTSGSGSPNFWGQGTQVTVSSGGGGSGGGSGGGGSGGGSEVQLVESGGGLVQPGGSLRLSCIASGLPFSTKSMGWFRQAPGKEREFVARISPGGTSRYYGDFVKGRFAISRDNAKNTTWLQMNSLKAEDTAVYYCASGERSTYIGSNYYRTNEYDYWGTGTQVTVSS
In assay [1], B6 came in with an IC50, splenocyte assay, 3.8 pM cIL-23 of 3 pM. The IC50, splenocyte assay, 19 pM hIL-23 in assay [2] came out at 4 pM.

B7: P23IL119A3-9GS-ALB1-9GS-81A12 (bispecific antibody, part only; not given: anti-albumin Nanobody, part only)
chain, part: EVQLVESGGGLVQAGGSLRLSCAASGRIFSLPASGNIFNLLTIAWHRQAPGMQRELVATINSGSRTNYADSVKGRFTISRDNAQKTVYLQMNNLKPEDTAVYYCQTSGSGSPNFWGQGTQVTVSSGGGGSGGGSGGGGSGGGSEVQLVESGGGLVQAGGSLRLSCAASGRTLSSYAMGWFRQAPGKEREFVARISQGGTAIYYADSVKGRFTISRDNAKNTVYLQMNSLKPEDTAVYYCAKDPSPYYRGSAYLLSGSYDSWGQGTQVTVSS
The molecule B7 showed an IC50, splenocyte assay, 3.8 pM cIL-23 in assay [1] of 3.3 pM. Further, in assay [2], the IC50, splenocyte assay, 19 pM hIL-23 is 2.5 pM.

B8: P23IL37D5-9GS-ALB1 (bispecific antibody, part only; not given: anti-albumin Nanobody, part only)
chain, part: EVQLVESGGGLVQPGGSLRLSCAASGFTLDYLAIGWFRQAPGKEREGVSCVSSSGQYTYYADSVKGRFTISRDNAESTVYLQMNSLKPEDTAVYYCATDPECYRVRGYYNGEYDYWGQGTQVTVSSGGGGSGGGS
With B8, the IC50, splenocyte assay, 3.8 pM cIL-23 in assay [1] came to 419 pM. This molecule also showed an IC50, splenocyte assay, 19 pM native hIL-23 (Expt 3) in assay [6] of 60 pM. For the same molecule, the IC50, splenocyte assay, 19 pM hIL-23 in assay [2] was determined as 29.8 pM. Also, in assay [5], the 50% inhibitory concentration (IC50) is 0.037 nM.

B9: P23IL-121A2-9GS-ALB1-9GS-81G2 (bispecific antibody, part only; not given: anti-albumin Nanobody, part only)
chain, part: EVQLVESGGGLVQAGGSLRLSCAASGSIFNFNYMGWFRQAPGKEREFVAAIRWSGSSTYYADSVKGRFTISRDDAKNTVALQMNSLKPEDTAIYYCALRKGIPYSTSDRVIKGVNDYDYWGQGTQVTVSSGGGGSGGGSGGGGSGGGSEVQLVESGGGLVQPGGSLRLSCIASGLPFSTKSMGWFRQAPGKEREFVARISPGGTSRYYGDFVKGRFAISRDNAKNTTWLQMNSLKAEDTAVYYCASGERSTYIGSNYYRTNEYDYWGTGTQVTVSS
As to B9, the IC50, splenocyte assay, 19 pM hIL-23 in assay [2] was found to be 8 pM.
